# According to PMC5217639, “Structural prediction of the interaction of the tumor suppressor p27^KIP1 with cyclin A/CDK2 identifies a novel catalytically relevant determinant” (BMC Bioinformatics, 2017):
# How the values were obtained:
# cyclin A/CDK2 = biological target: T1, cyclin A/CDK2 (Homo sapiens, UniProt P24941); assay: In vitro kinase assay of cyclin A/CDK2 on biotinylated p27KIP1 substrate peptides (Michaelis-Menten kinetics); format: biochemical; conditions: for Relative rate (maximal relative rate of phosphoryl transfer) / Km: 50 μM ATP and 1 μCi 32P-γ-ATP, 10 min, 30°C, 50 mM Tris-HCl pH 7.5, 10 mM MgCl2, SAM2 membrane, scintillation counting, Michaelis-Menten fit (GraphPad Prism), Fig. 5: mean values ± SD of 5 experiments performed in duplicates; for Km: peptide substrate
# T1 construct: made in house; host or cells: Sf9 insect cells (Spodoptera frugiperda), baculovirus co-infection
# Experimental: Fig. 5 Analysis of cyclin A/CDK2 kinase activity on p27^KIP1 substrate peptides. Cyclin A/CDK2 Kinase purified from Sf9 cells was incubated with increasing concentrations of p27^KIP1 wild type and the R194A mutant peptide as indicated. Phosphorylation of the peptides was monitored after immobilisation on SAM2 membrane by scintillation counting and analysis by GraphPad Prism software. Shown are mean values ± SD of 5 experiments performed in duplicates
# Human cyclin A/CDK2 complexes were expressed in SF9 insect cells (Spodoptera frugiperda) upon infection with recombinant baculo viruses encoding either cyclin A or CDK2. The complex was purified using the GST tag of cyclin A [49]. In vitro kinase assays of cyclin A/CDK2 were performed in kinase buffer (50 mM Tris-HCl, pH 7.5, 10 mM MgCl2, 1 mM EGTA, 1 mM DTT, 40 mM α-glycero-phosphate, 20 mM p-nitrophenylphosphate, 0.1 mM sodium vanadate, 0.01% BriJ 35) containing 50 μM ATP and 1 μCi ^32P-γ-ATP for 10 min at 30°C in the presence of increasing amount of biotinylated p27^KIP1 wild type or R194A (an arginine to alanine substitution at position 194) peptides as substrates. The assays were terminated by adding 12.5 μl 7.5 M guanidine hydrochloride. The peptides were immobilized on SAM2 Biotin Capture Membranes (Promega), extensively washed as described in the manufacturer’s protocol, and then monitored for radioactivity in a liquid scintillation counter to calculate the specific kinase activity. Kinetic parameters were determined with GraphPad Prism software built-in “Enzyme kinetic Michaelis-Menten”. The sequence of the p27^KIP1 wild type peptide corresponds to amino acids 180 to 194. The peptides were synthesized with a biotin-PEG-20-linker and purified by HPLC at the Peptide Specialty Laboratories, Heidelberg (Germany).
# [1] = biological target: Human cyclin A/CDK2 complex (human) (UniProt P20248)
Relative rate (maximal relative rate of phosphoryl transfer) (cyclin A/CDK2) [pmol/min],Km (cyclin A/CDK2) [µM],"turnover rate of the wt peptide relative to the R194A mutant peptide (cyclin A/CDK2; wt versus R194A, in words)","Km of peptide phosphorylation by cyclin A/CDK2, in vitro kinase assay (32P-γ-ATP, 50 μM ATP, 10 min, 30°C) [1] [µM]","Relative rate/Km of peptide phosphorylation by cyclin A/CDK2, in vitro kinase assay [1]","maximal relative rate of phosphoryl transfer by cyclin A/CDK2, in vitro kinase assay [1] [pmol/min]",Substance
1.11,81.4,,,,,"N180AGSVEQTPKKPGLA [Peptide R194A, p27KIP1 peptide with an arginine to alanine substitution at position 194]"
2.21,93.6,twice as high,,,,"N180AGSVEQTPKKPGLR [wt, p27KIP1 wild type peptide corresponding to amino acids 180 to 194]"
,,,81.4,0.0135,1.11,p27^KIP1 R194A peptide (amino acids 180 to 194)
,,,93.6,0.0195,2.21,p27^KIP1 wild-type peptide (amino acids 180 to 194)
